This series concerns the molecule itself. Nature of the series: cross-linking.

B1: Xenopus Nudt16 protein (X29) (enzyme, Xenopus laevis)
chain: MAESRSPDRGAKEDKPRPRNISREESLQLEGYKHACHALLHAPSQAKLFDRVPIRRVLLMMMRFDGRLGFPGGFVDTRDISLEEGLKRELEEELGPALATVEVTEDDYRSSQVREHPQKCVTHFYIKELKLEEIERIEAEAVNAKDHGLEVMGLIRVPLYTLRDRVGGLPAFLCNNFIGNSKSQLLYALRSLKLLREDQIQEVLKASHRLQY
A word on the stoichiometry N: it is the number of molecules, sites or subunits per partner or assembly. On to B1, for which the “stoichiometry N” value is no less than 2.

These data come from paper PMC2566886 (Nucleic Acids Research, 2008).
